Measurements published in publication PMC6901522.

Key:
Assay in all cases: NMR
Conditions in all cases: 298 K, 150 mM NaCl, 10 mM acetic acid, 10 mM sodium phosphate, the pH 7.4 point was taken from a sample in TBS, folded, oxidised (C63-C92 disulfide), ligand-free monomer, 215-356 µM protein
His49 = His49 (UniProt position 49, PGGVVHSFSHN)
His53 = His53 (UniProt position 53, VHSFSHNVGPG)
His87 = His87 (UniProt position 87, GTSEDHQHFTC)
His89 = His89 (UniProt position 89, SEDHQHFTCTI)

“Myeloid-derived growth factor (hMYDGF, C19orf10) (Homo sapiens)” showed a pKa (His49) of 6.4, a pKa (His53) of 5.4 and a pKa (His87) of 6.0. The pKa (His89) was 6.8.
